Results taken from the supplement of paper PMC9876800.

Test system: peptide library, one residue held at a place counted from the S/T acceptor
Experiment: relative phosphorylation of the sub-library (ratio to the mean residue at this position); higher = residue favoured
Conditions: human
Summary of the method: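 Each biotinylated degenerate peptide sub-library fixed one residue at one position around a central Ser/Thr and was incubated with a purified recombinant kinase, a human or orthologue construct, in 384-well plates. The 90 min reactions, under kinase-specific conditions, contained 50 μM peptide and 50 μM ATP spiked with γ-32P-ATP. Phosphorylation was read by phosphorimaging spots on streptavidin membranes and quantifying them by densitometry. Relative sub-library phosphorylation expresses each value as a ratio to the mean residue at that position.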

Sequence of TGFBR2, construct: aa190-end (P37173 190-567, looked up): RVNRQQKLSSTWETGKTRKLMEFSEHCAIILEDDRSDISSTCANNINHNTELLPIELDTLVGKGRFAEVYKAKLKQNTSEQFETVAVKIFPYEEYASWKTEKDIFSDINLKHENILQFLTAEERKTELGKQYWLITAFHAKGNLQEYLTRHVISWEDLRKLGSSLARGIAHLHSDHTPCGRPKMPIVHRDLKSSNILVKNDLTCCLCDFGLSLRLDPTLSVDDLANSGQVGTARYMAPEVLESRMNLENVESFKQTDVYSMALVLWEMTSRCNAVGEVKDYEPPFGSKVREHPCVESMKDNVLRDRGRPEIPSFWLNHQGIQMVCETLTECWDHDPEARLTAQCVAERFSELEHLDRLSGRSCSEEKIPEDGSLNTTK

TGFBR2, construct: aa190-end (from UniProt P37173)
relative phosphorylation
Conditions | at +1 | at +2 | at +3 | at +4 | at -1 | at -2 | at -3 | at -4 | at -5
A fixed | 0.597 | 1.09 | 0.846 | 0.874 | 0.646 | 0.441 | 0.835 | 0.987 | 1
D fixed | 0.508 | 0.616 | 0.509 | 0.57 | 0.715 | 4.02 | 1.25 | 1.01 | 0.775
E fixed | 0.77 | 0.466 | 0.485 | 0.529 | 0.775 | 5.47 | 1.24 | 0.907 | 0.713
F fixed | 1.27 | 0.826 | 1.04 | 0.789 | 1.02 | 0.412 | 0.859 | 0.952 | 0.97
G fixed | 0.63 | 1.36 | 1.29 | 1.08 | 0.67 | 0.665 | 1.05 | 1.08 | 1.11
H fixed | 0.872 | 1.16 | 1.18 | 1.09 | 1.04 | 0.478 | 0.882 | 1.13 | 1.1
I fixed | 1.69 | 1.1 | 1.05 | 1.06 | 0.757 | 0.327 | 0.748 | 0.851 | 0.9
K fixed | 0.531 | 1.26 | 1.12 | 1.43 | 1.03 | 0.447 | 0.855 | 0.91 | 1.2
L fixed | 1.32 | 0.584 | 1.07 | 0.839 | 1.38 | 0.366 | 0.717 | 0.814 | 0.901
M fixed | 2.09 | 0.826 | 0.922 | 0.919 | 1.34 | 0.484 | 0.907 | 0.872 | 0.809
N fixed | 0.801 | 0.891 | 0.941 | 0.85 | 0.812 | 0.877 | 0.982 | 1.08 | 0.908
P fixed | 0.271 | 0.89 | 1.12 | 1.33 | 1.1 | 0.365 | 1.09 | 1 | 0.95
Q fixed | 1.36 | 1.08 | 0.778 | 0.932 | 1.01 | 0.598 | 0.985 | 0.898 | 0.848
R fixed | 0.834 | 1.36 | 1.32 | 1.23 | 0.911 | 0.886 | 1.72 | 1 | 1.17
V fixed | 1.36 | 1.18 | 1.01 | 0.964 | 1.11 | 0.332 | 0.794 | 0.897 | 0.933
W fixed | 0.946 | 1.29 | 1.18 | 1.47 | 1.19 | 0.419 | 1.12 | 1.59 | 1.58
Y fixed | 1.14 | 1.02 | 1.15 | 1.06 | 1.49 | 0.41 | 0.973 | 1.02 | 1.13
pThr fixed | 1.55 | 0.529 | 0.488 | 0.539 | 0.594 | 1.2 | 0.884 | 0.863 | 0.765
pTyr fixed | 0.53 | 0.432 | 0.685 | 0.483 | 0.951 | 0.441 | 0.778 | 0.63 | 0.746
